From the nanobody polyreactivity screen of Harvey et al. (2022) come the findings set out here.

The data set can be described thus: yeast display, Sf9 membrane polyspecificity reagent, FACS + sequencing; frameworks hold sequencing errors. An outline of the steps:
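Polyreactivity labels are assigned by the sorting gate from which each nanobody was recovered. The gates were low and high (top ~1%), set on anti-HA fluorescence for expression and streptavidin fluorescence for reagent binding. Before sorting, galactose-induced (36–48 hours) yeast display cells were stained for 1 hour at 4 °C with 10% biotinylated, detergent-solubilized Sf9 membrane reagent.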
Regarding “QVQLVESGGGLVQAVCSLRLICAASGLTFGGYSMGWYRQAPAKERELVAAISRSCGSTYYADSVKGRFTISRDNAKNTVFLQMNSLKPEDTAVYYCNAGRDTKYDYWGQGTQVTVSS”, the “polyreactivity (PSR sort gate)” value is on record as “low polyreactivity”. The entry for “QVQLVESGGGLVQAGGSLRLSCAASGRTIRYYAMGWYRQAPGKERELVAAITQNGGRTYYADSVKGRFTISRDNAKNTVYLQMNSLKPEDTAVYYCAKAFIQPGYKYDSWGQGTQVTVSS” is “high polyreactivity”. Consider “QVQLEESVGGLVQAGCSLRLSCAASGGIFWVYAMGWYRQAPGKERELVAAISNSDTSTSYADSVKGRFTISRDNAKNTVYLQMNSLKPEDTAVYYCNADSPSLSGDYWGQGTQVTVSS”, for which the “polyreactivity (PSR sort gate)” value is on record as “low polyreactivity”. For “QVQLVESGGGLVQAGGSLRLSCAASGITFDVNAMGWYRQAPGKERELVAAITAGGNTYYADSVKGRFTISRDNAKNTVYLQMNSLKPEDTAVYYCAAVSTSLYWAGYDYWGQGTQVTVSS”, the “polyreactivity (PSR sort gate)” value was “low polyreactivity”.

With “QVQLVESGGGLVQAGGSLRLSCAASGRILWFYAMGWYRQAPGKERELVAAISWNGGSTYYADSVKGRFTISRDNAKNTVYLQMNSLKPEDTAVYYCAARPFHIHLSLEYNYWGQGTQVTVSS”, the “polyreactivity (PSR sort gate)” value was “low polyreactivity”. In the case of “QVQLVETGGGLVQAGGSLRITCAASGSIFSYYDMGLNRQAPGNEREMVAAFSWDGGDRTYADSVKGRFTISRDIAKNTVYLQMNSLKPEDSAVYYCAKNTGSYRRVNLDYWGQGTQVTVSS”, the “polyreactivity (PSR sort gate)” value was “low polyreactivity”. With “QVQLVESGGGLVQAGGSLRLSCAASGRTFNWYAMGWYRQAPGKESELVAAISSRGGSTYADSVKGRFTISRDNAKNTVYLQMNSLTPEDTAVYYCNADLLPADAPLWVTGGDYWGQGTQVTVSW”, the “polyreactivity (PSR sort gate)” value is “low polyreactivity”. Under “QVQLVESGGGLVQAGGSLRLSCAASGRIFYRNAMGRYRQAPGKERELVAAISSSGGRTYYADSVKGRFTISRDNAKITVYFQMNSLKPEDTAVYYCNRAYYLDSGYDSWGQGTQVTVSS” stands “high polyreactivity”. The entry for “QVQLLESGGGLVQAGGTLRLSCAASGRISWYNAMGWYRQAPGKERELVAAIRGGGSTHYADSVKGRFTISRDNAKNTVYLQMNSLKPEDTAVYYCAAYLYYPFYWWRDYWGQGTQVTVSS” is “high polyreactivity”; for “QVQLVESGGGLVQAGGSLRLSCAAYGSTLDGNAMGWYRQAPGKERELVAGLDTGGSTYYADSVKGRFTISRDNAKYTVYLQLIRLKPEDTAVYDCAATDREDYDYWGQGTQVTVSS” it is “low polyreactivity”; for “QVQLVESGGGVVQAGGSLRLSCAASGRTFRSYAMGWYRQAPGKERELVAAISWSGGSTYYADSVKGRFTISRDNAKNTVYLQMNSLKPEDTAVYYCAATVGQRKYQLGYWGQGTQVTVSS” it is “high polyreactivity”. For the sequence “QVQLVESGGGLVQAGGSLRLSCAASGSIISRNAMGWYRQAPGKERELVAAITSSGDSTYYADSVKGRFTISRDNAKNTVYLQMNSLKPEDTAVYYCNARAYRRKRYDYWGQGTQVTVSS”, the “polyreactivity (PSR sort gate)” value is “high polyreactivity”. Under “QVQLVESGGGLVQAGGSLRLSCAASGRIFYRYAMGWYRQAPGKEREFVAAISRSGTTTYYADSVKGRFTISRDNAKNTVYLQMNSLKPEDTAVYYCAVGYRGWDGYWGQGTQVTVSS” stands “high polyreactivity”; under “QVQLVESGGGLVQAGGSLRLSCAASGFTFGSNAMGWYRQAPGKEREFVAAITYSGGGTYADSVKGRFTISRDNAKNTVDLQMNSLKPEDTAVYYCATDAYRWHYWNFGFGYWGQGTQVTVSS”, “high polyreactivity”. In the case of “QVQLVESGGGLVQAGGSLRLSCAASGSTLALYTMGWYRQAPGKERELVAAISKNGGRTYYADSVKGRFTISRDNAKNTVYLKMNSLKPEDTAVYYCAAASGSYRGYDYWGQGTQVTVSS”, the “polyreactivity (PSR sort gate)” value is given as “high polyreactivity”.

In the case of “QVQLVDSGGGLVQAGGSLRLSCSASRSNFVYNAIGWYRKAPWKERELVTGISGGGGTNYADSVKGRFTISRDNEKNTVYLQMNSLKPEDTAVYYCAAEQNYIEFDYWGQGTQVTVSS”, the “polyreactivity (PSR sort gate)” value was “low polyreactivity”. The entry for “QVQLVESGGGLDQAGGSLRLSCAASGFIFGPNAMGWYRQAPGKERELVAAISWIGSSTYYADSVKGRFTISRDNAKNTVYIKMNSLTPEDTPVYYCAADSSERRLLDFDYWGQGTQVTVSS” is “low polyreactivity”. For “QDQLVESGGGLVQAGGSLRLSCAASGRILGSNTMGWDRQAPGKERELVAAITSAGNTNYADSVKGRFTISRDNAKNTVYLQMNSLKPEDTAVYYCNVRGQRLYYRVRRLYDYWGQGTQVTVSS”, the “polyreactivity (PSR sort gate)” value is listed as “high polyreactivity”. In the case of “QVQLVESGGGLVQAGGSLRLSCAASGSIFYRNAMGWYRQAPGKERELVAAISASGGSTYYADSVKGRFTISRDNAKNTVYLQMNSLKPEDTAVYYCAASRYYSRYDYWGQGTQVTVSS”, the “polyreactivity (PSR sort gate)” value is “high polyreactivity”.

Take “QVQLVESGGGLVQAGGSLRLSCAASGRTFSYYAMRWYRQAPGKERELVAAITSGGSTYYADSVKGRFTISRDNAKNTVYLQMNSLKPEDTAVYYCAKYQSYGPVPFGRGYGHYYWGQGTQVTVSS”: the “polyreactivity (PSR sort gate)” value is “high polyreactivity”.

In the case of “QVQLVESGGGLVQAGGSLRLSCAASGRTFWRNAMGWYRQAPGKERELVAVISVRGSSTSYADSVKGRFTISRDNAKNTVYLQMNSLKPEDTAVYYCNKASRTYGTGYDYWGQGTQVTVSS”, the “polyreactivity (PSR sort gate)” value is “high polyreactivity”. Regarding “QVQVVESGGGIVQAGGSLRLSCAASGFIFNGNAMGWYRQAPGKERELVAADSVKGRFTISRDNAKNSVYLQMNRLKPEDTAVYYCATEFWQASDYDYWGHGTQVTVSS”, the “polyreactivity (PSR sort gate)” value is “low polyreactivity”. As for “QVQLVESGGGLVQAGGSLRLSCAASGTIFPGYTIGWYRQAPGKEREFVAAISRRGGSTYYADSVKGRFTISRDNAKNTVYLQMNSLKPEDTAVYYCPKVPDYRFEYWGQGTLVTVSS”, the “polyreactivity (PSR sort gate)” value was “high polyreactivity”. As to “QVQLVESCGGLVQAGGSLRLSCAASGSIFSGYAMGWYRQAPWKERELVAAITWRAASTYYADSVTGRFTISRDNAMNTVYLQMNSLKPEDTAVYYCAKEGWPKPAFYYCGQGTQVTVSS”, the “polyreactivity (PSR sort gate)” value is given as “low polyreactivity”.

Regarding “QVQLVESGVGLVQAGGSLRLSSAASGFTFIYYPMGWYRPAPGKERELVAAITSGGNTYYADSVKGRFTISRDNAKNSVYFQMNSLKPEDTAVYYCNKVPHREWVGGYDYWGQGTQVTVSS”, the “polyreactivity (PSR sort gate)” value is on record as “low polyreactivity”.

Consider “QVQLVESGGGLVQAGGSLRLSCAASGLTFKRNAMGWYRPAPGKERELVAAIRYSTDSTNCADSVKGRFTISRDNAKNTVYLQMNSLKPEDTAVYYCAKDKQDYEYWGQGTQVTVSS”, for which the “polyreactivity (PSR sort gate)” value is given as “low polyreactivity”.

Turning to “QVQLVESAGGLVQAGGSLRLSCAASGTILWWNAMGRYRPAPGKERELVADITSDGTYADSVKGRFTISRDNAKNTVYLQMNSLKPEDTAVYYCAAVDAYGPGLNGYDYWGQGTQVTVSS”, the “polyreactivity (PSR sort gate)” value is reported as “low polyreactivity”. The entry for “QVQLVESGGGLVQAGGSLRLSCAASGFIFGVNAMGWYRQAPGKEPELVAAINGGASTYYADSVKGRFTISRDNAKNTVYLQMNSLKPEDTAVYYCAAVFYDYRGRLYPNFGLYYYWGQGTQVTVSS” is “high polyreactivity”; for “QVQLVESGGGLVQAGGSLRLSCAASVSTFAPNAMGWYRQAPGKEMELVASIRRGGSTHYADSVKGRFTISRDNAKNTVYLQMNSLQPEDTAVYYCAAEFRDVSSNGYDYWGQGTQVTVSS” it is “low polyreactivity”. For “QVQLVESGGGLVQAGGSLRLSCAASGFTFYRYAMGWYRQAPGKERELVAAFSGSGGSTYYADSVKGRFTISRDNAKNTVYLQMNSLKPEDTAVYYCNTVWFYGAKYDYWGQGTQVTVSS”, the “polyreactivity (PSR sort gate)” value is recorded as “high polyreactivity”. The entry for “QVQLVESGGGLVQAGGSLRLTCAASGSTFNRYAMGWYRQAPGKERELVAAITSTGGTNYADSVKGRFTISLDNAKNTVYLQMNSLKPEDTAFYYCAKRWLRWRSNYWGQGTQVTVSS” is “high polyreactivity”. Turning to “QVQLVESGGGLVQAGGSLRLSCAASGSTFLYYAMGWYRQAPGKERELVAAITSSGGRTYYADSVKGRFTISRDNAKNTVYLQMNSLKPEDTAVYYCARGWPRREQSEYDYWGQGTQVTVSS”, the “polyreactivity (PSR sort gate)” value was “high polyreactivity”. For “QVQLEESGGGLVQAGGSLRLSCAASGYTFSHYAIGWYRQAPGKERELVAGITWSGGSTYYADSVKGRFTISRDYAKNTVYLQMNSLKPEDTSVYYCAAKYYWYYSYSGIPLFDYWGQGTQVTVSS”, the “polyreactivity (PSR sort gate)” value is “low polyreactivity”. In the case of “QVQLVESGGGLVQAGGSLRLSCAASGFIFTTYAMGWYRQAPGKERELVAAISTSGGRTYYADSVKGRFTISRDNAKNTVYLQMNSLKPEDTAVYYCNTYSYYSYDWGQGTQVTVSS”, the “polyreactivity (PSR sort gate)” value was “high polyreactivity”. On to “QVQLVESGGGLVQAGGSLRLSCAASGLIFANNAMGWYRQAPGKERELVAVISRGGRTYYADSVKGRFTISRDNAKNTVYLQMNSLKPEDTAVYYCAKPVLVGLGARYVYWGQGTQVTVSS”, for which the “polyreactivity (PSR sort gate)” value was “high polyreactivity”. Regarding “QVQLVESGGGLVQAGGSLRLSCAASGSIFHRYAMGWYRQAPGKEREFVAAISGRGGSTYYADSVKGRFTISRDNAKNSVYLQMNSLKPEDTAVYYCAADSSRFYGRPRYYYWGQGTQVTVSS”, the “polyreactivity (PSR sort gate)” value is “high polyreactivity”.

For “QVQLVESGGGLVQAGGSLRLSCAASGSIFAGNTMGWYRQAPGKERELVARMTRAGSTYYADSVKGRFTITRDNAKNTVYLQMNSLKPEDTAVYYCASGPTGSLYRYYYWGQGSQVTVSS”, the “polyreactivity (PSR sort gate)” value is listed as “high polyreactivity”.

With “QVQLVESGGGLVQAGGSLRLSCAASGSSFDDYTMVWYRQAPGKERELVADSTESGGTTYADSVKGRFTISRDNAKNTVYLQMYSLKPVDTAVYYCNADIYISPLVQVSKGYDYWGQGTQVTVSS”, the “polyreactivity (PSR sort gate)” value is given as “low polyreactivity”.

On to “QVLLVESGGGLVQAGGSLRLSCSASGITFEYYAMGWYRQAPGKERELVADIDTGGSTNYADSVKGRFTISRDNAKNTVYLQMNSLKPEDTAVYYCAADWSWWDAEDYHFEYDYWGQGTQVTVSS”, for which the “polyreactivity (PSR sort gate)” value is recorded as “low polyreactivity”.

Take “QVQLVESGGGLVQAGGSLRLSCAASGIIFKGYAMGWYRQAPGKERELVAGITRNGGGTYYADSVKGRFTISRDNAKNTVYLQMNSLKPEDTAVYYCAARWDYSYRYRLYYWGQGTQVTVSS”: the “polyreactivity (PSR sort gate)” value is “high polyreactivity”. For “QVQLVESGGGLVQAGGSLRLSCAASGFTFKYYAMGWYRQAPGKERELVAAINRSGGSTHYADSVKGRFTISRDIAKNTVYLQINSLKPEDTAVYYCAATGRRRTYSEYEYWGQGTQVTVSS”, the “polyreactivity (PSR sort gate)” value is “high polyreactivity”.
